Laboratory results as given in the supplement of paper PMC11246515.
± gives the standard deviation of the averaged measurements.

Test: total protein half-life in vivo (active degradation + dilution); higher = more stable protein
[1] = E. coli NCM3722 delta-clpP delta-lon delta-hslV, growth: N-lim chemostat, doubling time 6 h
[2] = E. coli NCM3722 delta-clpP, growth: N-lim chemostat, doubling time 6 h
[3] = E. coli NCM3722 delta-hslV, growth: N-lim chemostat, doubling time 6 h
[4] = E. coli NCM3722 delta-lon, growth: N-lim chemostat, doubling time 6 h
[5] = E. coli NCM3722 delta-smpB, growth: N-lim chemostat, doubling time 6 h
[6] = wild type E. coli NCM3722, growth: C-lim chemostat, doubling time 3 h
[7] = wild type E. coli NCM3722, growth: C-lim chemostat, doubling time 6 h
[8] = wild type E. coli NCM3722, growth: C-lim chemostat, doubling time 12 h
[9] = wild type E. coli NCM3722, growth: N-lim chemostat, doubling time 6 h
[10] = wild type E. coli NCM3722, growth: N-lim chemostat, doubling time 12 h
[11] = wild type E. coli NCM3722, growth: P-lim chemostat, doubling time 6 h
[12] = wild type E. coli NCM3722, growth: P-lim chemostat, doubling time 12 h

| Substance | total protein half-life in vivo [1] [h] | total protein half-life in vivo [2] [h] | total protein half-life in vivo [3] [h] | total protein half-life in vivo [4] [h] | total protein half-life in vivo [5] [h] | total protein half-life in vivo [6] [h] | total protein half-life in vivo [7] [h] | total protein half-life in vivo [8] [h] | total protein half-life in vivo [9] [h] | total protein half-life in vivo [10] [h] | total protein half-life in vivo [11] [h] | total protein half-life in vivo [12] [h] |
| --- | --- | --- | --- | --- | --- | --- | --- | --- | --- | --- | --- | --- |
| P0AAI3 | 4.9 ± 0.24 | 5.097 ± 0.043 | 4.76 ± 0.23 | 4.88 ± 0.19 | 4.46 ± 0.14 | 3.11 ± 0.11 | 5.51 ± 0.52 | 10.8 ± 0.55 | 4.53 ± 0.27 | 8.44 ± 0.27 | 6.15 ± 0.37 | 10.2 ± 0.18 |
| P0AES2 | 4.25 ± 0.51 | 3.729 ± 0.03 | 3.64 ± 0.5 | 3.41 ± 0.14 | 3.21 ± 0.19 | 3.03 ± 0.049 | 5.26 ± 0.72 | 8.83 ± 0.4 | 3.14 ± 0.086 | 4.57 ± 0.082 | 5.38 ± 0.73 | 8.99 ± 0.022 |
| P0AGE9 | 4.58 ± 0.064 | 4.71 ± 0.71 | 4.68 ± 0.31 | 5.1 ± 0.21 | 4.28 ± 0.29 | 3.06 ± 0.069 | 5.43 ± 0.12 | 9.89 ± 1.2 | 4.64 ± 0.056 | 7.237 ± 0.026 | 5.85 ± 0.2 | 11.9 ± 0.51 |
